Laboratory results reported in the RNAGym collection of RNA variant scans (doi:10.1073/pnas.2313332121).
This sample holds only a part of the variants without activity.

B1: TPR 5TU (parent)
chain: GGAUCUUCUCGAUCUAACAAAAAAGACAAAUCUGCCACAAAGCUUGAGAGCAUCUUCGGAUGCAGAGGCGGCAGCCUUCGGUGGCGCGAUAGCGCCAACGUUCUCAACUAUGACACGCAAAACGCGUGCUCCGUUGAAUGGAGUUUAUCAUG

Variants of: B1
Experiment: polymerase ribozyme fitness, log enrichment relative to wild type (log ratio); higher = more active; in vitro selection for triplet polymerase activity
How it was run: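 A heterodimeric triplet polymerase ribozyme had each of its subunits mutagenized by PCR into a library, which was transcribed. One round of in vitro selection, done in triplicate, annealed each library with a biotinylated primer, its partner subunit and triplets, then incubated it frozen at −7 °C before gel excision of extended constructs, streptavidin-bead capture and RT-PCR. Fitness is the logarithm of genotype enrichment relative to wild-type enrichment, based on Illumina sequencing of inputs and outputs and inverse-variance-weighted replicate averages. A base-2 logarithm is used, and genotypes were kept only with ≥10 input reads and ≥1 read per output.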

| Variant | polymerase ribozyme fitness (log ratio) |
| --- | --- |
| A49U C96G | -0.972 |
| C57G G59C G86A A142G | -3.23 |
| A23C G25A U55A U61G G68A G92U A97U G124A G128C | ≤ -4.2 |
| A26G G81A C95U | ≤ -4.2 |
| A29U A41U C69U C95A C118G C125U U148A | ≤ -4.2 |
| C85G C118A U146C | -2.72 |
| G48C C85A A142U | ≤ -4.2 |
| C35U A52C U55A C93U C149A | ≤ -4.2 |
| A16C G88A C116G | -4.19 |
| C32G G42C U44A G88C C95U C103G | ≤ -4.2 |
| A21G U139A | -3.9 |
| C57G G74C | ≤ -4.2 |
| A16U G133C U146A | -3.79 |
| C87G A98G | ≤ -4.2 |
| C51A G68U U82C C116U U146G | ≤ -4.2 |
| A49U G58C A66G G80U C85A C87A C108G G128U C149U | ≤ -4.2 |
| U15C U145C A150G | -0.684 |
| A23C C75G C103U | ≤ -4.2 |
| A22G C51U U78G C95U A107G U146C | ≤ -4.2 |
| C57A C85U | -0.0999 |
| A97U G124U | -1.05 |
| C18U C85G U145A | -1.19 |
| U104G G141U | 0.973 |
| A49U U61A A138C G140C | ≤ -4.2 |

| Variant | polymerase ribozyme fitness (log ratio) |
| --- | --- |
| G94A C96G | -2.1 |
| G46U G83U A91U A106U U148C | ≤ -4.2 |
| C57G G86A C95U C99U G141U | -3.92 |
| A20U A47G G50U C85G | -3.77 |
| A3G G11C C87A A91U A137G | ≤ -4.2 |
| A19C G70C C103G | ≤ -4.2 |
| A16U U61G G81A | -1.91 |
| A110G C129U U144C | ≤ -4.2 |
| C10U G124C U139G U148C | ≤ -4.2 |
| U33G A40C C116A | -3.88 |
| A89G G124U | -1.93 |
| A3U A30U G86U C87U | ≤ -4.2 |
| C57A G58A C79U G88U | ≤ -4.2 |
| C69A G117A | -0.631 |
| U31C A40C G94A | 1.25 |
| A12C A30U A37U A49U C57U U90G A91U A107U | ≤ -4.2 |
| U6G A60C C85A C96U G124U | -4.11 |
| U55A C57A C95U | -0.372 |
| U55A C114A | -3.44 |
| G50A U53C U56A A91U G94C A142C | ≤ -4.2 |
| A12C C38A C93U | -1.62 |
| A21U A22G G88A A97G A106C C125U | ≤ -4.2 |
| A17U A19G A30G C38G U45A G88U | ≤ -4.2 |
| C35G A91C C118G C123A | ≤ -4.2 |

| Variant | polymerase ribozyme fitness (log ratio) |
| --- | --- |
| A12G A19U U45A U53A G88U | ≤ -4.2 |
| C57U C85A G133C G136A | -1.86 |
| U6A C8A A19U A20U C72U U77A U101A | ≤ -4.2 |
| U82A G86A A98U U134A | -3.68 |
| U13A G58A C87U C105A C108U G124A U145A | ≤ -4.2 |
| A20G C54U A60U C85A | -3.42 |
| A47G U78A G81U G86C U127G A138C | ≤ -4.2 |
| U4G A106G | -0.112 |
| C54U G84A A97U | -1.27 |
| C8U U31G | -3.21 |
| G25U G46A C57U C69A G128U A138U | ≤ -4.2 |
| A49G G50C C95U A98G U145G | -2.77 |
| A29U A52C | ≤ -4.2 |
| A30U C43U G70U C87G | ≤ -4.2 |
| C43U C51A C85U A107U U135C | ≤ -4.2 |
| C38A A122U A137G G141U A142G | -3.83 |
| A29C A41G G59C G62C G100A G141C | ≤ -4.2 |
| A40G A64G G136A | ≤ -4.2 |
| G81A G94C A106C A113U C116A G133A | ≤ -4.2 |
| U56A G88C A142U | ≤ -4.2 |
| C32A C85U A142U | ≤ -4.2 |
| U15A G25A G42C C79A | ≤ -4.2 |
| A47C U78A C131U U145A | ≤ -4.2 |
| C63A | 0.15 |

| Variant | polymerase ribozyme fitness (log ratio) |
| --- | --- |
| A37G G117U | -2.18 |
| C38G U146C | -0.518 |
| U55G U82A U148C | -2.51 |
| U31G U148C | -2.37 |
| A30G U56A C85G C132U | ≤ -4.2 |
| A24C G46A G94U C95A A115C | ≤ -4.2 |
| C79U G81U G92C U127G | ≤ -4.2 |
| A23U C96U | -4.1 |
| A91G U144G | -2.02 |
| A52C U55A G62C G84A C105U C114U G141A C149A | ≤ -4.2 |
| A17G G92A A120G A122G C125A | ≤ -4.2 |
| G42C U44A C54G A91U C99U G143C U145C | ≤ -4.2 |
| C14U C87U | -2.18 |
| G59U C69U C87G C105G C129A G141A | ≤ -4.2 |
| A12G U53G G59A C95G A98C U146A | -1.26 |
| C87U A120G | -1.85 |
| G50C G59C G83A | -3.91 |
| C32G A49C | ≤ -4.2 |
| U45C G70C A91G C99U G136C | ≤ -4.2 |
| A3U C51U C95U | -1.09 |
| A22U A40U G42C C75A U90G | ≤ -4.2 |
| C10G U78G C85G U109C G140U | ≤ -4.2 |
| C75U G92U C93G | -1.13 |
| A28U A41U C57A G70C G88U A89U C95A | ≤ -4.2 |

| Variant | polymerase ribozyme fitness (log ratio) |
| --- | --- |
| A22C A28G C36A U55A C87A C118G | ≤ -4.2 |
| A17U A26C C76A G86A C96A C105G A115G | ≤ -4.2 |
| C93U C149U | -1.57 |
| A21G G81A C95U A107G A119C G141U | ≤ -4.2 |
| G83C C125U U146G | -3.89 |
| G65U G71C A73U A122U G126A A137C U146A | ≤ -4.2 |
| G83U G92C U111A | ≤ -4.2 |
| G59C U78G G81C | -4.11 |
| C27G G80A C114A C116U A142C | ≤ -4.2 |
| A40G A52C G83U A98C | -3.64 |
| U31A U45A A47C C93U C99G U135A | ≤ -4.2 |
| A28G G94A | -3.42 |
| U4C G48A | -1.42 |
| A24G C85G | ≤ -4.2 |
| C57A G74U C85A U130G | ≤ -4.2 |
| A29U U31G C36U C69G G84A | ≤ -4.2 |
| C36A C79U | ≤ -4.2 |
| C27G G50A | -3.72 |
| A12C U13G C18G A21G U101A A110U A120U G136C G140U G152U | ≤ -4.2 |
| A22U A26G A28C A37U U56A C96U A98U | ≤ -4.2 |
| A39U C96G | -2.11 |
| A40U G68A | -4.03 |
| U31G G59A G92U | -0.919 |
| A3U C96G | -1.47 |

| Variant | polymerase ribozyme fitness (log ratio) |
| --- | --- |
| G100U U139G U146G | ≤ -4.2 |
| G46U G83U | -2.29 |
| C85U A91C U102C | ≤ -4.2 |
| A24C A30U A138U U144G | ≤ -4.2 |
| C8A A47G A49G A52C U55A G88U U104A A119U U146C U148A | ≤ -4.2 |
| A24U G86A | -1.43 |
| C8G C57U G59A C69G G88U C96G A120U | ≤ -4.2 |
| C5A G67C C103A G141U A150C | ≤ -4.2 |
| C69G C85U A91G C118A C129G U144A | ≤ -4.2 |
| A26U A89G | -3.26 |
| C27A A47U A106U U145A | ≤ -4.2 |
| A21U A41G A60U C85U C103G C123A | -3.69 |
| C54U G124C | -0.768 |
| A24U A26U G48C G83A A115U C116U | ≤ -4.2 |
| G68U A73G C76U A91U A98G C99A G112U | ≤ -4.2 |
| C93U G140U | -3.59 |
| A39G C87U A147C C149A | ≤ -4.2 |
| G50A A91G C99U C103G | ≤ -4.2 |
| C5U U6G C79G | ≤ -4.2 |
| A12G G58U C116U A150G | -1.58 |
| A41U G133U U135A A142G A147U | ≤ -4.2 |
| C51U U56A G71C G84A G140A A142U | ≤ -4.2 |
| G74A A89C G94U U109G G117U | ≤ -4.2 |
| U7A U55A | -3.25 |

| Variant | polymerase ribozyme fitness (log ratio) |
| --- | --- |
| G112A | -1.96 |
| U53A G84C C99A U111A | ≤ -4.2 |
| C85A G126C U148A | -4.13 |
| A3U A22G C43U G68A U78G G92A A107U A110G A113G U151C | ≤ -4.2 |
| C5A U13G G81U G92C U145G | -2.12 |
| G59A C76A C85A G117A A122C | -2.85 |
| U55G C57G U101G | 0.189 |
| G50A C51U U55A G84A C87A C93A C108U G140C U146C | ≤ -4.2 |
| G25U U61A | -3.25 |
| C76A C85U | -0.443 |
| G71C A91U G136C | ≤ -4.2 |
| G62U U77A G86U C99G | ≤ -4.2 |
| A19G C87G | ≤ -4.2 |
| C57U A91U U102G G152U | -3.9 |
| C69A C76A U109C | ≤ -4.2 |
| U9A G11A C14U A19G C76A U82G C103A C116U | ≤ -4.2 |
| U4G G84A U109A A115C C123A | -2.01 |
| A3U A12G C87G | -4.02 |
| A28C G46C G84A C85U | ≤ -4.2 |
| U31G C123G A142G | -1.12 |
| A26U C75U | -3.23 |
| A20C U56G G92U | -0.962 |
| A21G C35A A49G C96G | ≤ -4.2 |
